Test results reported in the nanobody polyreactivity screen of Harvey et al. (2022).

Assay: yeast display, Sf9 membrane polyspecificity reagent, FACS + sequencing; frameworks hold sequencing errors
In short: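 A synthetic nanobody library was expressed on Saccharomyces cerevisiae BJ5465 by galactose induction for 36–48 hours. The library was stained for 1 hour at 4 °C with 10% biotinylated, detergent-solubilized Sf9 membrane reagent and enriched with streptavidin microbeads before FACS. Low and high (top ~1%) gates were set on anti-HA fluorescence for expression and streptavidin fluorescence for reagent binding, and each polyreactivity label reflects the gate of origin.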

| Sequence | polyreactivity (PSR sort gate) |
| --- | --- |
| QVQLVESGGGLVQAGGSLRLSCAGSGFIFNVYAMGWYRQAPGKARELVAAISRSGGSTYYADSVKGRFTISRDNAKNTVYLQLNSLKPEDTAVYYCNARTPPSYYDMGYWGQGTQVTVSS | high polyreactivity |
| QVQLVESGGGLVQAGGSLRLSCAGSGITFVAYAMGWYRQAPGKDRELVAAISGGGGSTYYADSVKGRFTISRDNAKNTVYLQMNSLKPEDTAVYDCNAEPYTSSGGYRGYDFDYWGQGTQVTVSS | low polyreactivity |
| QVQLVESGGGLVQAGGSLRLSCAGSGRIFQRNDMGWYRQAPGKARELVAGITGCGGRTYYADSVKGRFTISRDNEKNTVYLQMNSLKPEDTAVYYCAAALWSSRGRVLSRRDYWGQGTQVTVSS | high polyreactivity |
| QVQLVESGGGLVQAGGSLRLSCAGSGRIFREYPMGAYRHAPGKARELVAAITASGGGTYYADSVKGRFTLSRDNAKNTVYLQMNSLKPEDSAVYYCNAVLAPGGYDYWGQGTQVTVSS | low polyreactivity |
| QVQLVESGGGLVQAGGSLRLSCAGSGRIFTDYTMGWYRQAPGQERELVAAISYSGGSTYYADSVKGRFTISRDNAKNTVYLQMNSLKPEDTAVYYCNKDYYLHEGYGYWGQGTQVTVSS | low polyreactivity |
| QVQLVESGGGLVQAGGSLRLSCAGSGSIFGVYDLGWYRQAPGKERELVAVINSNGGSTYYADSVKGRFTISRDNAKNTVYLQMNSLKPEDTAVYYCAADYQSYVYIGYGYWGQGTQVTVSS | low polyreactivity |
| QVQLVESGGGLVQAGGSLRLSCAGSGSIYSYNAMGWYRQAPGKERELVAAIDWSGGSTYYADSVKGRFTLSRDNAKNTVYLQMNSLKPEDTAVYYEYDYWGQGTQVTVSS | low polyreactivity |
| QVQLVESGGGLVQAGGSLRLSCAGSGSTFGWYVMGWYRQAPGKERELVASITGSGGSTYYADSVKGRFTISRDNAKNTAYLQMNSLKPEDTAVYYCAADTGWYDDWTHDYWGQGTQVTVSS | low polyreactivity |
| QVQLVESGGGLVQAGGSLRLSCAPSGFIFDGYTMGWYRQAPGKETELVAAITTSGTSTYYADSVKGRFTISRDNAKNTVYLQMNSLKPEDTAVYYCAARQYRHRVKYYYWGQGTQVTVSS | high polyreactivity |
| QVQLVESGGGLVQAGGSLRLSCAPSGFIFRYYAMGWYRHAPGKERELVAAISRTSGRTYYADSVKGRFTISRDNAKNTVYLQMNSLKPEYTAVDYCAAVVRNPGTYEYWGQGTQVTVSS | high polyreactivity |
| QVQLVESGGGLVQAGGSLRLSCAPSGFTFLKNAMGWYRQAPGKERELVAAITGSGGSTYYADSVKGRFTISRDTEKNTVYLQMYSLKPEDTAVYYCNVRRGLRDYEYWGQGTQVTVSS | high polyreactivity |
| QVQLVESGGGLVQAGGSLRLSCAPSGIIFFAYAMGWYRQAPGKERELVAAISSSGGRTYYADSVKGRFTISRDNAKHTVYLQMNSLKPEETPVYYCNARWHGSFDYWGQGTQVTVSS | low polyreactivity |
| QVQLVESGGGLVQAGGSLRLSCAPSGITLVRYAMGWYRQAPGKERELVAAISSSGGSTYYADSVKGRFTISRDNAMNPVYLQMNSLKPEDTAVYYCAKRLYYGDPPTYDYWGQGTQVTVSS | high polyreactivity |
| QVQLVESGGGLVQAGGSLRLSCAPSGNIFAINALGWYRQAPGKESELVATITGGGGSTSYADSVKGRFTISRDNAKNTVYLQMNSLKPEDTAVYSCAADTVYYYGEWYDYWNYVWFDYWGQGTQVTVSS | low polyreactivity |
| QVQLVESGGGLVQAGGSLRLSCAPSGRIFAYNTMGGYRQAPGKERELVAVSTSGGSTNYADSVKRRFTISRDNAKNTVYLQMNSLKTEDTAVYYCATLETTGVNYWGQGTQVTVSS | high polyreactivity |
| QVQLVESGGGLVQAGGSLRLSCAPSGRIFKRNTMGWYRQAPGKVRELVAAITGSSGSTYYADSVKGRFTISRDNAKNNVLLQMNSLKPEDTAVYYCNTVRSVYQYWPYNYWGQGTQETVSS | high polyreactivity |

| Sequence | polyreactivity (PSR sort gate) |
| --- | --- |
| QVQLVESGGGLVQAGGSLRLSCAPSGRIFSWNAMGWYRQAPGKERELVAAISVRGGSTYADSVKGRFTISRDNAKNTVYLQMNSLKPEDTAVYYCAKTYYPYRLGEGQYEYDYWGQGTQVTVSS | low polyreactivity |
| QVQLVESGGGLVQAGGSLRLSCAPSGRIFSYNTMGWYRQAPGKERELVAAISRGGSTYYADSVKGRFTISRDNAKNTVYLQMNSLKPEDTAVYYCNALLPPGSRKYNYWGQGTQVTVSS | high polyreactivity |
| QVQLVESGGGLVQAGGSLRLSCAPSGRIFTRYARGWYRQAPGKERELVAVITRSGGSTYYADSVKGRFTISRDNAKNTVYLQMNSLKPEDTAVYYCAAKYYGEMYYWGQGTHVTVSS | low polyreactivity |
| QVQLVESGGGLVQAGGSLRLSCAPSGRIFWRYAMGWYRQAPGKERELVAGITYSGGRTYYADSVKGRFTISRDNAKNSVFLQMNSLKPEDSAVYYCAARGYFDALVDYWGQGTQVTVSS | low polyreactivity |
| QVQLVESGGGLVQAGGSLRLSCAPSGRIFYAYAMGWYRHAPGKERELVAAITIGGNTNYADSVKGRFTSSRDNAKNTVYLQMNSLKPEVTAVYDCNARTYYYPWRGYHVVGSNDLGYWGQGTQVTVST | low polyreactivity |
| QVQLVESGGGLVQAGGSLRLSCAPSGRTFKVNDMGWYRQAPGKERELVAAINYRGGRTYYADSVKGRFTISRDNAKNNFYLQMNSLKPEDTAFYYCNAQSGVVADDYWGQGTQVTVSS | high polyreactivity |
| QVQLVESGGGLVQAGGSLRLSCAPSGRTFRYYTMGWYRQAPGKERELVAAISSAGRTYYADSVKGRFTISRDNAKNTVYLQMNSLKPEDTAVYYCAAYGGDKIRMDYWGQGTQVTVSS | high polyreactivity |
| QVQLVESGGGLVQAGGSLRLSCAPSGRTFVHYTMGWYRQAPGKERELVAAISGTGTSTYYADSVKGRFTISRDNAKNTVYLQMNSLKPEDTAVYYCARRYWYPDAFYRYDYWGQGTQVTVSS | low polyreactivity |
| QVQLVESGGGLVQAGGSLRLSCAPSGRTFWAYAMGWYRQAPGKERELVAAITTSGGSTNYADSVKGRFTISRDNAKNTVYLQMNSLKPEDTAVYYCNADPTYHVVNGVGYWGQGTQVTESS | low polyreactivity |
| QVQLVESGGGLVQAGGSLRLSCAPSGRTFYPNVMGWSRQAPGKERELVAAITSGGSTYYADSVKGRFTISRDNAKNTVYLQMNSLKPEDTAVYYCAVAYAGGGSRKYDYWGQGTQVTVSS | low polyreactivity |
| QVQLVESGGGLVQAGGSLRLSCAPSGRTLFTNAMGWYRQAPGKERELVAAISIGGTTYYADSVKGRFTISRDNAKNTVYLQMNSLKPEDTAVYYCNKVRRFHSEYGYWGQGTQVTVSS | high polyreactivity |
| QVQLVESGGGLVQAGGSLRLSCAPSGRTLRGYAMGWYRQAPGKEREFVAAISSRGGSTYYADSVKGRFTISRDNAKNTVYLQMHSLKPEDTAVYYCAALRPLFATSHARDYWGQGTQVTVSS | high polyreactivity |
| QVQLVESGGGLVQAGGSLRLSCAPSGRTLYNYAMGWTRQAPGKERELVASITWSGGSTYYADSVKGRFTISRDNAKNTVYLQMTSLKPEDTAVYYCAAESSPGTFVRYGYRRYYYWGQGTQVTVSS | low polyreactivity |
| QVQLVESGGGLVQAGGSLRLSCAPSGRTYTVYTMGWYRQAPGKERELVAVISTGGRTYYADSVKGRFTISRDNAKNTVYLQMNSLKPEDTAVYYCAAKFTREYYWGQGTEVTVSS | high polyreactivity |
| QVQLVESGGGLVQAGGSLRLSCAPSGSIFHYNAMGWYRQAPGKEREFVAVISKSSGSTFYADSVKGRFTISRDNAKNTVYLLMISLKPEDTAVYYCNRVTKRYPNIGNYWGQGTQVSVSS | high polyreactivity |
| QVQLVESGGGLVQAGGSLRLSCAPSGSIFPDYAMGWYRHAPGKQRELVAAIRSGSRTYYADSVKGRFTISRDNAKITVYLQMNSLNPEDTAVYYCATTYGTPRYDYWGQGTQVTVSS | high polyreactivity |
